# Non-standard residues stand in square brackets, D forms with d. Residues, ends and D or L forms follow the SMILES beside them. No end group written: not given here. pY = N[C@@H](Cc1ccc(OP(=O)(O)O)cc1)C(=O)O
# T1: STAT6 (Homo sapiens, UniProt P42226)
# T1 sequence (P42226 1-847): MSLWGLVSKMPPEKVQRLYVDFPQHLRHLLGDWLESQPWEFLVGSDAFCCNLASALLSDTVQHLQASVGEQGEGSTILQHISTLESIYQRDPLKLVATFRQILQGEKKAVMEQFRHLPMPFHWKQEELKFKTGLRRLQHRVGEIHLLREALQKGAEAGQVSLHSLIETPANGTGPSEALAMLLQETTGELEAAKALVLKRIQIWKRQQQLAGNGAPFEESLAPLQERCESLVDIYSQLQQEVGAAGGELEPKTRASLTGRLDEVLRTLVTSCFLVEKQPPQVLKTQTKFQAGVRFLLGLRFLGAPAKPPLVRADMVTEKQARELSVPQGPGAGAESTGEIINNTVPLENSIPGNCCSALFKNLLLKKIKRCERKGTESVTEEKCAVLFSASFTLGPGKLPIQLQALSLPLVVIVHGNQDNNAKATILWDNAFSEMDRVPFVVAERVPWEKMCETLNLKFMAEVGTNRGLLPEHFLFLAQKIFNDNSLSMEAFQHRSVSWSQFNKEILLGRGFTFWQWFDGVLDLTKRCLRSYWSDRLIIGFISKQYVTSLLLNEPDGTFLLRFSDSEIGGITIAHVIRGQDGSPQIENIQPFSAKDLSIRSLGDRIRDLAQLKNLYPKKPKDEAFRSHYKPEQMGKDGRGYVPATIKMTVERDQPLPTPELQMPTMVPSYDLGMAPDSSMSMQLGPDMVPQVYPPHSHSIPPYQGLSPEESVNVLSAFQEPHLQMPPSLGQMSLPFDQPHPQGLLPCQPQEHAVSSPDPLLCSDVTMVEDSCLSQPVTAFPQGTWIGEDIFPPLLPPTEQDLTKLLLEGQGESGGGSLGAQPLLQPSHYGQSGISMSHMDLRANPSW
# T2: STAT6 (UniProt P42226 1-847, limits assumed)
# T2 construct: also called STAT6 polypeptide
# T2 sequence (looked up): T1 sequence (P42226 1-847)
# T3: STAT4 (Homo sapiens, UniProt Q14765)
# T3 sequence (Q14765 1-748): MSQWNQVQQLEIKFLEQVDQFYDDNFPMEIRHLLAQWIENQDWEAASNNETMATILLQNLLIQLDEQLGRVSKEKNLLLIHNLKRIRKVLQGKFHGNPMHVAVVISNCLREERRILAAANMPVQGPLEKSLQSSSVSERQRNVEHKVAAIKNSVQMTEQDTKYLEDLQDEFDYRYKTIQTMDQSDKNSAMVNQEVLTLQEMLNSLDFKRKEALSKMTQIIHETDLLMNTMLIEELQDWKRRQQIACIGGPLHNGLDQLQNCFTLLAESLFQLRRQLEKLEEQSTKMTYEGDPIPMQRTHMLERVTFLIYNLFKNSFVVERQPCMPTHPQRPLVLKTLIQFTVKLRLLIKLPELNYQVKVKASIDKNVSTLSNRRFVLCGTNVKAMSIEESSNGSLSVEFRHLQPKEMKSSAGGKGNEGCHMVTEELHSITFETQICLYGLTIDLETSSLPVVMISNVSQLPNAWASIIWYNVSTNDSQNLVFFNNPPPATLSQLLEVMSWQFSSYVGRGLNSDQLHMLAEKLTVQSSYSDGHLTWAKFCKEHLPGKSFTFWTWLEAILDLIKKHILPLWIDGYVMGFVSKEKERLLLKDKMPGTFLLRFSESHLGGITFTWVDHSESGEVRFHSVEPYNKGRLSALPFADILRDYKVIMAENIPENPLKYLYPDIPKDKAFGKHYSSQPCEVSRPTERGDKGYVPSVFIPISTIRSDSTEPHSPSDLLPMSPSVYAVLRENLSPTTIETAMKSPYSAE
# T4: STAT1 (Homo sapiens, UniProt P42224)
# T4 sequence (P42224 1-750): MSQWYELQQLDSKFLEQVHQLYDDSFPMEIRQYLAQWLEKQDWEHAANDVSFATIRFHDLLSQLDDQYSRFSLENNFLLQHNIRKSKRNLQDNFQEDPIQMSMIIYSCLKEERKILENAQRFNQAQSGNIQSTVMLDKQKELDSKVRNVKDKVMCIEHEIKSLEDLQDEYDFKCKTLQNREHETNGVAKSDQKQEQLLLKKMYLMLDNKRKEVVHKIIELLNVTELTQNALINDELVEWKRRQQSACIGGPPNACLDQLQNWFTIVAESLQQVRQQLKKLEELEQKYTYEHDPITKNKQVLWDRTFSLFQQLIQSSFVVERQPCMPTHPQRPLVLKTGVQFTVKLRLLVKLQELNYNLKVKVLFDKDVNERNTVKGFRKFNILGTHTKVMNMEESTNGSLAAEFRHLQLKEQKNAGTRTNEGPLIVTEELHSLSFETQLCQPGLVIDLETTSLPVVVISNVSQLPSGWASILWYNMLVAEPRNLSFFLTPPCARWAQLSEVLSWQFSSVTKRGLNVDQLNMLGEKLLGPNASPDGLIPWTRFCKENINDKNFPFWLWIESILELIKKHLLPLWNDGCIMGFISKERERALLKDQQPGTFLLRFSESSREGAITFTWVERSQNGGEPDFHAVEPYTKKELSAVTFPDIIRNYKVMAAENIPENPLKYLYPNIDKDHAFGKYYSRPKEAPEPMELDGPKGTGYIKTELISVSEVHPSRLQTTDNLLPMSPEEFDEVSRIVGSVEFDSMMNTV
# T5: STAT4 (UniProt Q14765 1-748, limits assumed)
# T5 construct: also called STAT4 polypeptide
# T5 sequence (looked up): T3 sequence (Q14765 1-748)
# B1: SHEGY^PLPSNID (IL-12 receptor) (peptide)
# peptide: SHEG[pY]LPSNID
# notes: Native IL-12 receptor-derived phosphopeptide; also called IL-12 receptor peptide
# How the values were obtained:
# STAT6 [1] = biological target: T1, STAT6; assay: STAT6 binding to phosphotyrosine receptor peptides (IC50 / binding affinity)
# STAT6 [2] = biological target: T1, STAT6; assay: Chemiluminescence binding assay, signal to noise, STAT6
# Method: (§1) The assays of the invention can be conducted as an ELISA assay, using a 96-well microplate format or a larger format if desired. In one embodiment, a phosphotyrosine-containing receptor peptide is incubated with a protein which contains an SH2 domain (e.g., a STAT polypeptide) to provide opportunity for the SH2 domain containing protein to bind the peptide. The peptide is preferably bound to a tag, e.g., biotin, at the amino terminus of the peptide. There can be a spacer between the tag and the peptide. The solution is placed in wells of a 96-well microplate that are coated with a tag binder, e.g., streptavidin. Reduction of background is achieved by incubating, in a separate reaction, a primary antibody specific for the SH2 domain containing protein and a secondary antibody specific for the first antibody which is to bind to the SH2 domain containing protein. The secondary antibody has conjugated to it a substrate for detection. The antibodies bind and form a binding pair of antibodies Ab1 and Ab2. Ab1 remains available to bind the SH2 domain containing protein for which it is specific. Ab2 remains conjugated to a substrate for chemiluminescence detection later.
# (§2) The solution containing binding pairs of primary and secondary antibodies bound together is then added to the microwells that already contain the bound streptavidin, biotinylated receptor peptide and an SH2 domain containing protein bound to the receptor peptide. […]
# (§3) An alternate method for conducting the assay involves preincubating the SH2 domain containing protein with the primary antibody that is specific for the SH2 domain containing protein. […] After allowing time for the SH2-antibody complex to bind the biotinylated peptide bound to streptavidin, a second antibody specific for the first antibody is added, and the presence of the second antibody is detected as before, using a chemiluminescence reaction with either alkaline phosphatase detection or horse radish peroxidase detection. […]
# STAT6 [3] = biological target: T2, STAT6; assay: binding affinity of the phosphorylated receptor peptide for STAT6; method not stated at the table (paragraph 32 speaks of IC50)
# STAT4 [4] = biological target: T3, STAT4; assay: Chemiluminescence binding assay, signal to noise, STAT4; parameters: key: high signal relative to background = + + + +
# Method: as §1, §2, §3
# STAT1 = biological target: T4, STAT1; assay: Chemiluminescence binding assay, signal to noise, STAT1; parameters: key: high signal relative to background = + + + +
# Method: as §1, §2, §3
# STAT4 [5] = biological target: T5, STAT4; assay: concentration at 50% binding of the STAT protein to the phosphotyrosine peptide (Example 4)
# STAT4 [6] = biological target: T5, STAT4; assay: binding affinity of the phosphorylated receptor peptide for STAT4; method not stated at the table (paragraph 32 speaks of IC50)
molecule,measurement,setting,value
"CC(C)C[C@H](NC(=O)[C@@H](NC(=O)[C@H](Cc1c[nH]cn1)NC(=O)[C@@H]1CCCN1C(=O)[C@H](CCCCN)NC(=O)[C@H](CC(=O)O)NC(=O)[C@H](Cc1ccc(OP(=O)(O)O)cc1)NC(=O)CNC(=O)[C@H](Cc1ccccc1)NC(=O)[C@@H](N)CO)C(C)C)C(=O)O [SFGY*DKPHVL, reference compound] (HELM PEPTIDE1{S.F.G.[O=C([C@H](Cc1ccc(OP(=O)(O)O)cc1)N[*:1])[*:2]].D.K.P.H.V.L}$$$$V2.0)",IC50,STAT6 [1],> 100000 nM
CC[C@H](C)[C@H](NC(=O)[C@H](CC(C)C)NC(=O)[C@H](CC(=O)O)NC(=O)[C@H](CCC(N)=O)NC(=O)[C@H](Cc1c[nH]c2ccccc12)NC(=O)[C@@H]1CCCN1C(=O)[C@@H](NC(=O)[C@H](Cc1ccc(OP(=O)(O)O)cc1)NC(=O)CNC(=O)[C@@H](N)CCC(=O)O)C(C)C)C(=O)O [EGY^PVPWQDLI] (HELM PEPTIDE1{E.G.[O=C([C@H](Cc1ccc(OP(=O)(O)O)cc1)N[*:1])[*:2]].V.P.W.Q.D.L.I}$$$$V2.0),IC50,STAT6 [1],610 nM
same,"signal relative to background, STAT6",STAT6 [2]; Ab1/Ab2 preincubation,+ + + + +
same,"signal relative to background, STAT6",STAT6 [2]; STAT4/Ab preincubation (so in the source),+ + + + +
same,"signal relative to background, STAT6",STAT6 [2]; Standard assay,+ +
CC(=O)N[C@@H](Cc1ccc(OP(=O)(O)O)cc1)C(=O)N[C@H](C(=O)N1CCC[C@H]1C(=O)N[C@@H](Cc1c[nH]c2ccccc12)C(N)=O)C(C)C [Ac-Y^PVPW-NH2] (HELM PEPTIDE1{[ac].[O=C([C@H](Cc1ccc(OP(=O)(O)O)cc1)N[*:1])[*:2]].V.P.W.[am]}$$$$V2.0),IC50,STAT6 [1],1200 nM
Ac-Y^PVPWQ-NH2 (peptide),BINDING AFFINITY,STAT6 [3],1.5 µM
Ac-Y^PVPW-NH2 (peptide),BINDING AFFINITY,STAT6 [3],1.2 µM
GY^PDMPHVL: phosphotyrosine receptor peptide for STAT4 (also binds STAT1) (G[pY]DMPHVL),"signal relative to background, STAT4",STAT4 [4]; Ab1/Ab2 preincubation,+ + + +
same,"signal relative to background, STAT4",STAT4 [4]; STAT4/Ab preincubation,+ + + +
same,"signal relative to background, STAT4",STAT4 [4]; Standard assay,+ +
same,"signal relative to background, STAT1",STAT1; Ab1/Ab2 preincubation,+ + + +
same,"signal relative to background, STAT1",STAT1; STAT1/Ab preincubation,+ + + +
same,"signal relative to background, STAT1",STAT1; Standard assay,+ +
"CC(=O)N[C@@H](Cc1ccc(OP(=O)(O)O)cc1)C(=O)N[C@@H](CCCCN)C(=O)N1CCC[C@H]1C(=O)N[C@@H](Cc1ccccc1)C(N)=O [Ac-Y^PKPF-NH2, reference compound] (HELM PEPTIDE1{[ac].[O=C([C@H](Cc1ccc(OP(=O)(O)O)cc1)N[*:1])[*:2]].K.P.F.[am]}$$$$V2.0)",IC50,STAT6 [1],22000 nM
Ac-Y^PKPF-NH2 (peptide),BINDING AFFINITY,STAT6 [3],22 µM
CC(=O)N[C@@H](Cc1ccc(OP(=O)(O)O)cc1)C(=O)N[C@H](C(=O)N1CCC[C@H]1C(=O)N[C@@H](Cc1c[nH]c2ccccc12)C(=O)N[C@@H](CCC(N)=O)C(N)=O)C(C)C [Ac-Y^PVPWQ-NH2] (HELM PEPTIDE1{[ac].[O=C([C@H](Cc1ccc(OP(=O)(O)O)cc1)N[*:1])[*:2]].V.P.W.Q.[am]}$$$$V2.0),IC50,STAT6 [1],1500 nM
ASSGEEG[pY]KPFQDLI [ASSGEEGY^PKPFQDLI],IC50,STAT4 [5],30000 nM
B1,BINDING AFFINITY,STAT4 [6],2.9 µM
SHEG[pY]LPWNID [SHEGY^PLPWNID],BINDING AFFINITY,STAT4 [6],0.93 µM
SHEG[pY]LPHNID [SHEGY^PLPHNID],BINDING AFFINITY,STAT4 [6],0.7 µM
SHEG[pY]LPNNID [SHEGY^PLPNNID],BINDING AFFINITY,STAT4 [6],0.51 µM
SHEG[pY]LPQNID [SHEGY^PLPQNID],BINDING AFFINITY,STAT4 [6],0.39 µM

# Source: patent publication US6682898B2, “High-throughput screening assays for modulators of STAT4 activity” (Tularik Inc., priority 1998, dated 2004)
